{"source": "paper PMC3260234", "key": {"[1]": {"molecular_target": "T1, OxyS (Mycobacterium tuberculosis) (UniProt L7N677)", "T1 sequence": "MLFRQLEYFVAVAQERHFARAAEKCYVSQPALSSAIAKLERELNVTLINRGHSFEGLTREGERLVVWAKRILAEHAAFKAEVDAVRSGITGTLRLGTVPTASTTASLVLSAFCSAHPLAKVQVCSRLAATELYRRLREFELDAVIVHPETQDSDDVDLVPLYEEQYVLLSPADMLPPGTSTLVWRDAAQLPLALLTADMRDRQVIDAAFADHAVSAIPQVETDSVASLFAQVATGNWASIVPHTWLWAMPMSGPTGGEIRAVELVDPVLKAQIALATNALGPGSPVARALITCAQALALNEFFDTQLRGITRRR", "experiment": "EMSA", "conditions": "20 mM Tris-HCl pH 7.5, 100 mM NaCl, 2 mM EDTA, room temperature 20 min"}, "[2]": {"molecular_target": "T1, OxyS (Mycobacterium tuberculosis)", "experiment": "competition", "conditions": "20 mM Tris-HCl pH 7.5, 100 mM NaCl, 2 mM EDTA, room temperature 20 min"}, "[3]": {"molecular_target": "T2, OxyS (Mycobacterium tuberculosis, UniProt L7N677 1-314)", "T2 sequence": "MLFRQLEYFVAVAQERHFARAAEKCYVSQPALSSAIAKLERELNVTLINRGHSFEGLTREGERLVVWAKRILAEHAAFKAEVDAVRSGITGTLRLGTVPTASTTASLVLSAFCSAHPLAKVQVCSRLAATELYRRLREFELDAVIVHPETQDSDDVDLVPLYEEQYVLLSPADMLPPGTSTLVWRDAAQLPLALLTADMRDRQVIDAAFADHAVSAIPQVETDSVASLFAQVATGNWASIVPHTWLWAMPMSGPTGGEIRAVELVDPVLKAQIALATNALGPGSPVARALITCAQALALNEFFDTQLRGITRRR", "experiment": "EMSA; 0-300 nM OxyS; 20 mM Tris-HCl pH 7.5, 100 mM NaCl, 2 mM EDTA, room temperature 20 min; […]", "conditions": "protein: recombinant; tags: 6xHis (pET28a); chain copies: 4; label: 5'-FITC on forward strand; blunt"}}, "data": [{"molecule": "CCGATGTCGACTGTGCTGTTGGCGAGGCACCCTGTCTGACGGCCTCGGACCATAACGGCTTCCTGTTGGACGAGGCGGAGGTCATCTACTGGGGTCTATGTCCTGATTGTTCGATATCCGACACTTCGCGATCACATCCGTGATCACAGCCCGATAACACCAACTCCTGGAAGGAATGCT (double strand) [katGp2]", "values": [{"measurement": "binding", "setting": "[1]", "value": "binds"}, {"measurement": "binding", "setting": "[2]", "value": "binds"}]}, {"molecule": "TCGACATCGGCGATAACCCCGCAAGACCGGCAGACGATGTGATGGTGGTTGTCGCCGACCCTGGACTCGTAGCGCGCGACGGAGCCCGAGGGTTGGATCTTTCGCACCAAGCCCGCGGCGGTCAGGGCATGCAGCACGTCGTACACGGCTTGCCGGGATACGTCGGGCAGCGCAAAACGC (double strand) [katGp1]", "values": [{"measurement": "binding", "setting": "[1]", "value": "no binding"}, {"measurement": "binding", "setting": "[2]", "value": "no binding"}]}, {"molecule": "OxyS box1mut (dsDNA) DNA 1: TGTCCCACGGCCTCGCCCCAT DNA 2: ATGGGGCGAGGCCGTGGGACA", "values": [{"measurement": "binding result", "setting": "[3]", "value": "no binding"}]}, {"molecule": "OxyS box1 (dsDNA) DNA 1: TGTCTGACGGCCTCGGACCAT DNA 2: ATGGTCCGAGGCCGTCAGACA", "values": [{"measurement": "binding result", "setting": "[3]", "value": "binds"}]}]}
